B1: IgG1-321-FEAR (antibody, V domains shown)
VH: EVQLVESGGGLVQPGGSLRLSCAASGFTFSSYWMSWVRQAPGKGLEWVANIKQDGNEKYYVDSVKGRFTISRDNAKNSLYVQMNSLRAEDTAVYYCARDLYYGSGTYPPFDYWGQGTLVTVSS
VL: DIQMTQSPSTLSASVGDRVTITCRASQSISSWLAWYLQKPGKAPKLLIYKASSLESGVPSRFSGSGSGTEFTLTISSLQPDDFATYYCQQYHSSSYTFGQGTKLEIK
B2: IgG1-421-LC91S-FEAR (antibody, V domains shown)
VH: EVQLVESGGGLVQPGRSLRLSCAASGFTFDDYAMHWVRQGPGKGLEWVSGIRWNSGSMHYADSVKGRFTISRDNAKSSLYLQMNSLRAEDTALYYCARAPWYSGAWHPDYWGQGTLVTVSS
VL: QSALTQPRSVSGSPGQSVTISCTGTSSDVGTYNYVSWYQQHPGKAPKLMIYDVIKRPSGVPDRFSGSKSGNTASLTLSGLQAEDEADYYCSSYAGTYTLLFGGGTKLTVL
B3: bsIgG1-huCD3-H1L1-FEAL×511-LC33S-FEAR (bispecific antibody)
heavy 1: not shown
VL: not shown
heavy 2: QVQLVQSGSELKKPGASVMVSCKASGYTFTSYVMNWVRQAPGQGLEWMGWINSYTGNPTSAQGFTGRFVFSFDTSVNTAYLQISSLKAEDTAVYYCARGYCTSTSCYLDYWGQGTLVTVSSASTKGPSVFPLAPSSKSTSGGTAALGCLVKDYFPEPVTVSWNSGALTSGVHTFPAVLQSSGLYSLSSVVTVPSSSLGTQTYICNVNHKPSNTKVDKRVEPKSCDKTHTCPPCPAPEFEGGPSVFLFPPKPKDTLMISRTPEVTCVVVAVSHEDPEVKFNWYVDGVEVHNAKTKPREEQYNSTYRVVSVLTVLHQDWLNGKEYKCKVSNKALPAPIEKTISKAKGQPREPQVYTLPPSREEMTKNQVSLTCLVKGFYPSDIAVEWESNGQPENNYKTTPPVLDSDGSFFLYSRLTVDKSRWQQGNVFSCSVMHEALHNHYTQKSLSLSPGK
light: SYELTQPPSVSVSPGHTARITCSGDALPKKYASWFQQKSGQAPVLVIYEDSKRPSGIPERFSGSTSGTMATLTISGAQVEDETDYYCYSADTSGTHRVFGGGTKLTVLGQPKAAPSVTLFPPSSEELQANKATLVCLISDFYPGAVTVAWKADSSPVKAGVETTTPSKQSNNKYAASSYLSLTPEQWKSHRSYSCQVTHEGSTVEKTVAPTECS
B4: IgG1-476-N101Q-LC33S-FEAR (antibody, V domains shown)
VH: EVQMLESGGGLVQPGGSLRLSCAASGFTFRSYAMSWVRQAPGKGLEWVSGIGDSGGSTYHADSVKGRFTISRDNSKNTLYLQMNSLRAEDTAVYYCAKLGQSSGWYDHYYYYGMDVWGQGTTVTVSS
VL: SYELTQPPSVSVSPGQTASITCSGDKLGNKYVSWFQQKPGQSPVLVIYRDSERPSGIPERFSGSNSGNTATLTISGTQAVDEADFYCQAWDSSTVVFGGGTKLTVL
B5: IgG1-632-FEAR (antibody, V domains shown)
VH: QVQLVESGGGLVKPGGSLRLSCAASGFTFSDYYMSWIRQAPGKGLEWVSYIGSSSNTIYYADSVKGRFTISRDNAKNSLYLQMNSLRAEDTAVYSCARDRVKYGSPGSLFDYWGQGTLVTVSS
VL: SYELTQPPSVSVSPGQTARITCSGDALPKKYAFWYQQKSGQAPVLVIYEDSKRPSGIPERFSGSSSGTMATLTISGAQVEDEADYYCYSTASSGDHRVFGGGTKLTVL

Experiments:
PDLoneECDHisCtag [1] = biological target: T1, PDLoneECDHisCtag (human, UniProt Q9NZQ7 19-238); experiment: BLI cross-block, second antibody on PDLoneECDHisCtag held by immobilised 338; bold = blocking
T1 construct: Expressed in HEK-293F cells; theoretical molecular weight 29 kDa; also called recombinant human PD-L1 ECD; human PD-L1 (BLI); not shown: C-terminal His-tag; C-tag
T1 sequence (Q9NZQ7 19-238, form in doubt): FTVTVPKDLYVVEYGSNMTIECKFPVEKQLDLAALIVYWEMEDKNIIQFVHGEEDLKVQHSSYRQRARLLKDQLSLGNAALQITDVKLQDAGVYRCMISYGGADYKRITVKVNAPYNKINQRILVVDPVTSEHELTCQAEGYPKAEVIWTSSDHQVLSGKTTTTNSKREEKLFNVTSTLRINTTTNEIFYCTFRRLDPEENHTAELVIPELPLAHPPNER
Description: (§1) Antibody cross-block testing was performed using biolayer interferometry (BLI) on an Octet HTX instrument (ForteBio). Antibodies (20 μg/ml in 10 mM sodium acetate buffer pH 6.0 (ForteBio)) were immobilized on Amine-Reactive 2nd Generation (AR2G) biosensors (ForteBio) according to the instructions of the manufacturer. After a baseline (50 s) in Sample Diluent (ForteBio), biosensors containing immobilized antibodies were loaded for 500 s with PDLoneECDHisCtag (100 nM or 2.7 μg/ml), after which the association response of a second antibody (10 μg/ml) was followed for 500 s. Biosensors were regenerated by using 3 times 5 s alternating exposures to 10 mM glycine pH 2.5 and Sample Diluent. The experiment was repeated with a new set of second antibodies starting from the baseline step. Each biosensor was used 6 times. The experiment was performed at 30° C. using a shaker speed of 1000 rpm. Data was analyzed using Data Analysis Software v9.0.0.12 (ForteBio). The Y-axis was aligned to the association step and Savitzky-Golay filtering was applied. The average buffer response was subtracted from the association response of the second antibody in order to correct for the dissociation of PDLoneECDHisCtag from the immobilized antibody. The corrected association responses were plotted in a matrix format.

PDLoneECDHisCtag [2] = biological target: T1, PDLoneECDHisCtag; experiment: BLI cross-block, second antibody on PDLoneECDHisCtag held by immobilised 547; bold = blocking
Description: as §1

PDLoneECDHisCtag [3] = biological target: T1, PDLoneECDHisCtag; experiment: BLI cross-block, second antibody on PDLoneECDHisCtag held by immobilised 321; bold = blocking
Description: as §1

PDLoneECDHisCtag [4] = biological target: T1, PDLoneECDHisCtag; experiment: BLI cross-block, second antibody on PDLoneECDHisCtag held by immobilised MEDI; bold = blocking
Description: as §1

PDLoneECDHisCtag [5] = biological target: T1, PDLoneECDHisCtag; experiment: BLI cross-block, second antibody on PDLoneECDHisCtag held by immobilised MPDL; bold = blocking
Description: as §1

PDLoneECDHisCtag [6] = biological target: T1, PDLoneECDHisCtag; experiment: BLI cross-block, second antibody on PDLoneECDHisCtag held by immobilised 511-LC33S; bold = blocking
Description: as §1

PDLoneECDHisCtag [7] = biological target: T1, PDLoneECDHisCtag; experiment: BLI cross-block, second antibody on PDLoneECDHisCtag held by immobilised 516; plain = non-blocking
Description: as §1

PDLoneECDHisCtag [8] = biological target: T1, PDLoneECDHisCtag; experiment: BLI cross-block, second antibody on PDLoneECDHisCtag held by immobilised 632; plain = non-blocking
Description: as §1

PDLoneECDHisCtag [9] = biological target: T1, PDLoneECDHisCtag; experiment: BLI cross-block, second antibody on PDLoneECDHisCtag held by immobilised 421-LC91S; bold = blocking
Description: as §1

PDLoneECDHisCtag [10] = biological target: T1, PDLoneECDHisCtag; experiment: BLI cross-block, second antibody on PDLoneECDHisCtag held by immobilised 516; bold = blocking
Description: as §1

PDLoneECDHisCtag [11] = biological target: T1, PDLoneECDHisCtag; experiment: BLI cross-block, second antibody on PDLoneECDHisCtag held by immobilised 511-LC33S; plain = non-blocking
Description: as §1

PDLoneECDHisCtag [12] = biological target: T1, PDLoneECDHisCtag; experiment: BLI cross-block, second antibody on PDLoneECDHisCtag held by immobilised 476-N101Q-LC33S; plain = non-blocking
Description: as §1

[13] = biological target: T2, human PD-L2 (full length, on CHO cells) (human, UniProt Q9BQ51 20-273); experiment: flow cytometry on CHO cells expressing human PD-L2
T2 construct: whole, on cells; also called CHO-PD-L2 cells
T2 sequence (looked up): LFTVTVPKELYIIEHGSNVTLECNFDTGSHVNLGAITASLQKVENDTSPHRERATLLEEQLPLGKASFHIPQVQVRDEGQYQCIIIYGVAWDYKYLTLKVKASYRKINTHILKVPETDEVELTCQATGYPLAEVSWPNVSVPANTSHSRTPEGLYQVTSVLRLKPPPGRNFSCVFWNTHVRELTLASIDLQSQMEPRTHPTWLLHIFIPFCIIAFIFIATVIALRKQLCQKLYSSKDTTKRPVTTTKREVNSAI
Description: (§2) Cells (3-5×10⁴ cells/well) were incubated in polystyrene 96-well round-bottom plates (Greiner bio-one, cat. no. 650101) with serial dilutions of antibodies (range 0.0001 to 10 μg/mL in 5-fold dilution steps) in 50 μL PBS/0.1% BSA/0.02% azide (staining buffer) at 4° C. for 30 min.
(§3) After washing twice in staining buffer, cells were incubated in 50 μL secondary antibody at 4° C. for 30 min. As a secondary antibody, R-Phycoerythrin (PE)-conjugated goat-anti-human IgG F(ab′)₂ (Cat. no. 109-116-098, Jackson ImmunoResearch Laboratories, Inc., West Grove, Pa.) diluted 1:500 in staining buffer, was used for all experiments. Next, cells were washed twice in staining buffer, re-suspended in 20 μL staining buffer and analyzed on an iQue screener (Intellicyt Corporation, USA). Binding curves were analyzed using non-linear regression (sigmoidal dose-response with variable slope) using GraphPad Prism V75.04 software (GraphPad Software, San Diego, Calif., USA).
A PE-conjugated PD-L2 specific antibody (Mylteni, clone MIH18; cat. no. 130-098-651) was used as positive control.

[14] = biological target: T3, human PD-L1 (full length, on cells) (human, UniProt Q9NZQ7 19-290); experiment: flow cytometry on MDA-MB-231 cells, PE anti-human IgG secondary, MFI (PE)
T3 construct: The entry holds the signal peptide; also called CD274; B7H1
T3 sequence (Q9NZQ7 19-290 limits assumed): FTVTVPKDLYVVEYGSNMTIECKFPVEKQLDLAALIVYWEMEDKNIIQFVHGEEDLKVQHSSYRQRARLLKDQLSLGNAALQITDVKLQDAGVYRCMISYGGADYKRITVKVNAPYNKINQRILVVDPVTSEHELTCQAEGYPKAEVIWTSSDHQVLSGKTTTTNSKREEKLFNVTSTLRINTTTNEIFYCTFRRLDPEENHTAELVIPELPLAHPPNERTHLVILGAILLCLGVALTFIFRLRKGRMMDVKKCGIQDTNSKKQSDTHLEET
Description: as §2, §3

[15] = biological target: T4, cynomolgus monkey PD-L1 (full length, on CHO cells) (cynomolgus monkey (Macaca fascicularis), UniProt G7PSE7 19-290); experiment: flow cytometry on CHO cells transfected with cynomolgus PD-L1, PE anti-human IgG secondary, MFI (PE)
T4 construct: whole, on cells; also called PDL1 Mf; cynomolgus PD-L1
T4 sequence (G7PSE7 entry or part of it): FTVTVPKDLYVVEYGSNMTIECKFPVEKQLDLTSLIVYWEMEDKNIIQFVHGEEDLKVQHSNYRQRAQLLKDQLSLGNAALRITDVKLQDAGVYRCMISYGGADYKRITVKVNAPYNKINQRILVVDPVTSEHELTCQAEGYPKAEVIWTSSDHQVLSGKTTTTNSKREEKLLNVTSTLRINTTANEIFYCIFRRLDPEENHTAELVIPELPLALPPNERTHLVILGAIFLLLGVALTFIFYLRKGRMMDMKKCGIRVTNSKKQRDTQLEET
Description: as §2, §3
Binding to CHO cells expressing cynomolgus PD-L1 was determined by flow cytometry using a method as described above.

PDLoneECDHisCtag [16] = biological target: T1, PDLoneECDHisCtag; experiment: BLI cross-block, second antibody on PDLoneECDHisCtag held by immobilised 632; bold = blocking
Description: as §1

PDLoneECDHisCtag [17] = biological target: T1, PDLoneECDHisCtag; experiment: BLI cross-block, second antibody on PDLoneECDHisCtag held by immobilised 547; plain = non-blocking
Description: as §1

PDLoneECDHisCtag [18] = biological target: T1, PDLoneECDHisCtag; experiment: BLI cross-block, second antibody on PDLoneECDHisCtag held by immobilised 421-LC91S; plain = non-blocking
Description: as §1

PDLoneECDHisCtag [19] = biological target: T1, PDLoneECDHisCtag; experiment: BLI cross-block, second antibody on PDLoneECDHisCtag held by immobilised 476-N101Q-LC33S; bold = blocking
Description: as §1

Binder | association response of the second antibody (PDLoneECDHisCtag [1]) | association response of the second antibody (PDLoneECDHisCtag [2]) | association response of the second antibody (PDLoneECDHisCtag [3]) | association response of the second antibody (PDLoneECDHisCtag [4]) | association response of the second antibody (PDLoneECDHisCtag [5]) | association response of the second antibody (PDLoneECDHisCtag [6]) | association response of the second antibody (PDLoneECDHisCtag [7]) | association response of the second antibody (PDLoneECDHisCtag [8]) | association response of the second antibody (PDLoneECDHisCtag [9]) | association response of the second antibody (PDLoneECDHisCtag [10]) | association response of the second antibody (PDLoneECDHisCtag [11]) | association response of the second antibody (PDLoneECDHisCtag [12]) | binding result [13] | binding result [14] | EC50 (read off the curve) [15] | association response of the second antibody (PDLoneECDHisCtag [16]) | association response of the second antibody (PDLoneECDHisCtag [17]) | association response of the second antibody (PDLoneECDHisCtag [18]) | association response of the second antibody (PDLoneECDHisCtag [19])
B1 | 0 nm | 0 nm | 0 nm | 0 nm | 0 nm | 0 nm | 1.1 nm | 0.6 nm | -0.1 nm | – | – | – | – | – | – | – | – | – | –
B2 | 0 nm | 0 nm | 0 nm | 0 nm | 0 nm | – | – | 0.6 nm | 0 nm | -0.1 nm | 0.6 nm | 0.8 nm | – | – | – | – | – | – | –
B3 | – | – | – | – | – | – | – | – | – | – | – | – | no binding | binds | ~0.3 µg/mL | – | – | – | –
B4 | – | – | – | – | – | 0 nm | 1.2 nm | – | – | – | – | – | – | – | – | 0 nm | 0.8 nm | 0.4 nm | 0 nm
B5 | – | – | – | – | – | 0 nm | 1.1 nm | – | – | – | – | – | – | – | – | 0 nm | 0.7 nm | 0.2 nm | 0 nm
